Assay results published in the nanobody polyreactivity screen of Harvey et al. (2022).

assay: yeast display, Sf9 membrane polyspecificity reagent, FACS + sequencing; frameworks hold sequencing errors
Procedure, shortened: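 In a synthetic yeast display library (Saccharomyces cerevisiae BJ5465), nanobody expression was induced with galactose for 36–48 hours. FACS gates were set low and high (top ~1%) using anti-HA fluorescence for expression and streptavidin fluorescence for binding of the Sf9 membrane reagent. Each polyreactivity label is drawn from the gate of origin.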

Row | Sequence | polyreactivity (PSR sort gate)
1 | QDQLVESGGELVQAGGSLRLSCASSGRTFSANGMGWYRQAPAKERELVAAITRSGGITYYADSVKGRFTISRVNAKNTVYLQMNSLKPEDTAVYYCAASVYSLSRRSWMDYWGQGTQVTVSS | low polyreactivity
2 | QDQLVESGGGFVQEGGSLRLSCDPSGRIFYGYVMGRYRQAHGKERELVAAISRRGGSTYYADSVKGRFTISRDNAKNTVYLQMNSMKPVVTAVDYCDAVLSFALVQYYGANRDDYWGQGTQVSVSS | high polyreactivity
3 | QDQLVESGGGIVQEGGILRLSCAASGRIFVGYAMGWYRQAPGKERELVAAIRRYGTGTYYADSVKGRFTISRDNAKYTVYLKLNSLKTEDTAVYYCDAPELALYFPYDYWGQGTQVTVSS | low polyreactivity
4 | QDQLVESGGGLDQAGGSLRLSCAASGRIFARYAMGWYRLAPGKERELVAALSRGGSTKYADSVKGRFTISRDNAKNTVYLQLHSLQQEDTAVYYCARQLWGSQYGAYYAGDYWGQVTQVTVSS | low polyreactivity
5 | QDQLVESGGGLDQAGGSLRLSCAASGSTFQLYAMGWYRQAPGKERELVAAISGIGDSTYYADSVKGRFTISRDNAKNTVYLQMNSLKPEDTAVYYCDREFSDGLSGKFDYWGQGTQVTVSS | low polyreactivity
6 | QDQLVESGGGLDQAGGSLRLSCAASGSTFSPYAMGWYRQAPGKERELVAGITSSGGDSYYADSVKGRFTISRDNAKNTVYLQMKSLKPEDTAVYYCAADWWVLGQLCFDYWGQGTQVNVSS | low polyreactivity
7 | QDQLVESGGGLFQAGGSLRLSCAASGGIFGFYAMGWSRKAPGKERELVAAISWGGGSTYYADSVKGRFTISRDNAKNTVYLQMNSLKPEDTAFYYCAADPALTIEYGYWGQVTQVTVSS | low polyreactivity
8 | QDQLVESGGGLFQAGGSLRLSCGASGFIFRWNAMGWSRQAPGKEREMVAAITRGGSTYYADSVKGRFSISRDNAKNTVYLQMNSLKPEDTAVYFCAAGYVYRGASGGYWGQGTQVTVSS | high polyreactivity
9 | QDQLVESGGGLLQAGGSLRLSCAASGRTFNSYAMGWYRQAPGKERVLVAAISSSGGSTYYADSVKGRFTISRDNAKNTVYLEMNSLKPEDTAVYYCAAGLGSTSALLYGYWGQGTLVTVSS | high polyreactivity
10 | QDQLVESGGGLVHAGGSLLLSCAACRRLFSQYVMGWYRQAPGKERELVAAISSGGGRTYYADSVKGRFTISRDYAKNTVYLQLNSLKPEDTAVYYCATLRPSAYPQYDSWGQGTQVTVSS | high polyreactivity
11 | QDQLVESGGGLVHAGGSLRLSCAASGNNFSSYVMGWYRQATGKERELVAAISSRGGSTYYADSVKGRFTISRDNSKNTVYLQMNCLKPEDTAVYYCAARYLSCYDWGQGTQVSVSS | high polyreactivity
12 | QDQLVESGGGLVQAGASLRLSCAASGSIICLYAMGWYRQAPGKERELVARITRSGGRTYYADSVKGRFTISRDNAKNTVYLQTNSLKPEDTAVYYCNAYGPNIYSSRYDYWGQGTQVSVSS | low polyreactivity
13 | QDQLVESGGGLVQAGGRLRLSCAASGFTFHKYAMGWSRPAPGKDRELVAAITSSGGSTYYADSVKGRFTISRDYAKNTVYLQMTSLKPEDTAVYYCNARGGGRKSYDYWGQGTQVTVSS | high polyreactivity
14 | QDQLVESGGGLVQAGGRLRLSCAASGLIFENYAMGWYRQSPGKERDLVAAITTSGGSTYYADSVKGRFTISRDNAKNTVYLQMNSLKPEDTAVYDCAAVGVRSRYYGYDYWGQGTLVTVSS | high polyreactivity
15 | QDQLVESGGGLVQAGGRLRLSCAASGRTFYWNAMGWYRQAPGKERELVAAINGGGSTYYADSVKGRFTISRDNAMNTVYLQINSLKQEDSAVYYCNAESYEFHRAWGDYDYWGHGTQVTVSS | low polyreactivity
16 | QDQLVESGGGLVQAGGRLRLSCAASGSIFCGNAMGWYRQAPGKERDLVAAITYRSGRTYYADSVKGRFTISRDNAKNTVYFQMNSLKPEDTAVYDCAAEFGGASRYTYNYWGQGTQVTVSS | low polyreactivity
17 | QDQLVESGGGLVQAGGRLRLSCAASGSTFWWYDMGWYRKAHGKDRELVAAINWSGGSTYYADSVKGRFTISRDNAKNTVYLQMNSLKPEDTAVYYCAKVGRETEYDYWGQGTQVTVSS | high polyreactivity
